The RNAGym collection of RNA variant scans (doi:10.1093/molbev/msab373)

B1: Azoarcus group I ribozyme (parent)
chain: GUGCCUUGCGCCGGGAAACCACGCAAGGGAUGGUGUCAAAUUCGGCGAAACCUAAGCGCCCGCCCGGGCGUAUGGCAACGCCGAGCCAAGCUUCGGCGCCUGCGCCGAUGAAGGUGUAGAGACUAGACGGCACCCACCUAAGGCAAACGCUAUGGUGAAGGCAUAGUCCAGGGAGUGGCGAAAGUCACACAAACCGG

Variants of: B1
Assay: reverse-splicing fitness (ratio to wild type); higher = more active; in vitro selection; Mg2+ level not given
Method in brief: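 An in vitro group I ribozyme library with randomized positions was T7-transcribed and gel-purified. In triplicate, 10 pmol RNA in EPPS pH 7.5 was reacted with 50 pmoles of a 30-nt RNA substrate for 1 h at 37 °C across several added MgCl2 levels (1–48 mM), then stopped with EDTA. Products were reverse transcribed from a substrate-complementary primer, PCR-amplified and sequenced (HiSeq 4000). Fitness is a variant's read proportion after selection over that before, normalised to wild type.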
Work on C82A A120G C169A U176G yielded a reverse-splicing fitness of 0.00374.
Work on C82A A120G C169A U176A yielded a reverse-splicing fitness of 0.0187.
Variant C82A A120G A145G C150A C169U has a reverse-splicing fitness of 0.00961.
Work on C82A A120G A145G C150A C169G yielded a reverse-splicing fitness of 0.0104.
C82A A120G A145G C150A C169A gave a reverse-splicing fitness of 0.0112.
Work on C82A A120G C150A C169A U176C yielded a reverse-splicing fitness of 0.0216.
Variant C82A A120G C150A C169A U176A has a reverse-splicing fitness of 0.0184.
With C82A A120G C150A C169A U176G the reverse-splicing fitness was 0.00586.
Work on C82A A120G A145C C169U U176G yielded a reverse-splicing fitness of 0.00381.
C82A A120G A145C C169U U176A gave a reverse-splicing fitness of 0.0217.
With C82A A120G A145C C169U U176C the reverse-splicing fitness was 0.0129.
C82A A120G A145U C150G C169A showed a reverse-splicing fitness of 0.00891.
C82A A120G A145U C150G C169G gave a reverse-splicing fitness of 0.00902.
With C82A A120G A145U C150G C169U the reverse-splicing fitness was 0.00862.
C82A A120C C150U C169A U176G gave a reverse-splicing fitness of 0.00673.
C82A A120C C150U C169A U176C showed a reverse-splicing fitness of 0.0165.
With C82A A120C C150U C169A U176A the reverse-splicing fitness was 0.0201.
C82A A120G A145U C150U C169G U176G showed a reverse-splicing fitness of 0.00454.
Variant C82A A120G A145U C150U C169G U176A has a reverse-splicing fitness of 0.0114.
Work on C82A A120G A145U C150U C169G U176C yielded a reverse-splicing fitness of 0.0154.
With C82A A120G U176C the reverse-splicing fitness was 0.0184.
Variant C82A A120G U176G has a reverse-splicing fitness of 0.00511.
C82A A120G U176A showed a reverse-splicing fitness of 0.0137.
C82A A120U A145C C150A C169G showed a reverse-splicing fitness of 0.00223.
In the case of C82A A120U A145C C150A C169A, the reverse-splicing fitness is reported as 0.00256.
Variant C82A A120C C150U C169U has a reverse-splicing fitness of 0.0173.
In the case of C82A A120C C150U C169G, the reverse-splicing fitness is reported as 0.00925.
Work on C82A A120C C150U C169A yielded a reverse-splicing fitness of 0.0105.
With C82A A120C A145U U176G the reverse-splicing fitness was 0.00885.
With C82A A120C A145U U176A the reverse-splicing fitness was 0.0383.
In the case of C82A A120C A145U U176C, the reverse-splicing fitness is reported as 0.0639.
Variant C82A A120G A145C C150U U176G has a reverse-splicing fitness of 0.0042.
C82A A120G A145C C150U U176C showed a reverse-splicing fitness of 0.0102.
C82A A120G A145C C150U U176A gave a reverse-splicing fitness of 0.0106.
With C82A A120G A145G C150G the reverse-splicing fitness was 0.00892.
In the case of C82A A120G A145G C150A, the reverse-splicing fitness is reported as 0.0101.
C82A A120G A145G C150U showed a reverse-splicing fitness of 0.0203.
C82A A120G A145G C150G C169U showed a reverse-splicing fitness of 0.0106.
In the case of C82A A120G A145G C150G C169A, the reverse-splicing fitness is reported as 0.01.
C82A A120G A145G C150G C169G gave a reverse-splicing fitness of 0.00916.
C82A A120C C150U U176G gave a reverse-splicing fitness of 0.0111.
With C82A A120C C150U U176A the reverse-splicing fitness was 0.0246.
Variant C82A A120C C150U U176C has a reverse-splicing fitness of 0.0394.
Work on C82A A120G A145G C150A C169U U176C yielded a reverse-splicing fitness of 0.0185.
In the case of C82A A120G A145G C150A C169U U176G, the reverse-splicing fitness is reported as 0.00592.
In the case of C82A A120G A145G C150A C169U U176A, the reverse-splicing fitness is reported as 0.0211.
Work on C82A A120G A145C C150A U176G yielded a reverse-splicing fitness of 0.00435.
In the case of C82A A120G A145C C150A U176A, the reverse-splicing fitness is reported as 0.00995.
In the case of C82A A120G A145C C150A U176C, the reverse-splicing fitness is reported as 0.00806.
Work on C82A A120G A145G C150G C169A U176G yielded a reverse-splicing fitness of 0.00858.
In the case of C82A A120G A145G C150G C169A U176A, the reverse-splicing fitness is reported as 0.0138.
With C82A A120G A145G C150G C169A U176C the reverse-splicing fitness was 0.0128.
Variant C82A A120C C150A C169G U176G has a reverse-splicing fitness of 0.00627.
C82A A120C C150A C169G U176C showed a reverse-splicing fitness of 0.0258.
In the case of C82A A120C C150A C169G U176A, the reverse-splicing fitness is reported as 0.021.
With C82A A120C C169G the reverse-splicing fitness was 0.00961.
C82A A120C C169A gave a reverse-splicing fitness of 0.0104.
With C82A A120C C169U the reverse-splicing fitness was 0.0186.
C82A A120G A145C C150A C169G showed a reverse-splicing fitness of 0.00852.
C82A A120G A145C C150A C169U showed a reverse-splicing fitness of 0.00736.
Variant C82A A120G A145C C150A C169A has a reverse-splicing fitness of 0.00694.
Work on C82A A120G A145C C150G C169G U176G yielded a reverse-splicing fitness of 0.00341.
Variant C82A A120G A145C C150G C169G U176A has a reverse-splicing fitness of 0.00918.
In the case of C82A A120G A145C C150G C169G U176C, the reverse-splicing fitness is reported as 0.00676.
With C82A A120G A145C C150A C169A U176G the reverse-splicing fitness was 0.00399.
Variant C82A A120G A145C C150A C169A U176C has a reverse-splicing fitness of 0.00527.
Work on C82A A120G A145C C150A C169A U176A yielded a reverse-splicing fitness of 0.0126.
With C82A A120C C150G C169A the reverse-splicing fitness was 0.0112.
Work on C82A A120C C150G C169G yielded a reverse-splicing fitness of 0.00866.
Work on C82A A120C C150G C169U yielded a reverse-splicing fitness of 0.0104.
Work on C82A A120G A145C C150G C169U U176C yielded a reverse-splicing fitness of 0.0123.
For C82A A120G A145C C150G C169U U176A, the reverse-splicing fitness was 0.0158.
Work on C82A A120G A145C C150G C169U U176G yielded a reverse-splicing fitness of 0.00438.
Variant C82A A120G A145G C150U C169G U176C has a reverse-splicing fitness of 0.0199.
For C82A A120G A145G C150U C169G U176G, the reverse-splicing fitness was 0.0046.
C82A A120G A145G C150U C169G U176A gave a reverse-splicing fitness of 0.0149.
With C82A A120G A145U C150A C169U U176A the reverse-splicing fitness was 0.0207.
With C82A A120G A145U C150A C169U U176G the reverse-splicing fitness was 0.00431.
Work on C82A A120G A145U C150A C169U U176C yielded a reverse-splicing fitness of 0.0164.
With C82A A120G C150A C169U the reverse-splicing fitness was 0.0102.
For C82A A120G C150A C169G, the reverse-splicing fitness was 0.0102.
Work on C82A A120G C150A C169A yielded a reverse-splicing fitness of 0.011.
In the case of C82A A120C C150G C169A U176G, the reverse-splicing fitness is reported as 0.00817.
